This data set can be described thus: self-splicing fitness, log relative to wild type (ln ratio); higher = more splicing; Tetrahymena group I intron in knt gene, E. coli kanamycin selection, DiMSum; sequences stand for … in CUCUCU…GGAGGGAAAAGUUAUCAGGCAUGCACCUGGUAGCUAGUCUUUAAACCAAUAGAUUGCAUCGGUUUAAAAGGCAAGACCGUCAAAUUGCGGGAAAGGGGUCAACAGCCGUUCAGUACCAAGUCUCAGGGGAAACUUUGAGAUGGCCUUGCAAAGGGUAUGGUAAUAAGCUGACGGACAUGGUCCUAACCACGCAGCCAAGUCCUAAGUCAACAGAUCUUCUGUUGAUAUGGAUGCAGUUCACAGACUAAAUGUCGGUCGGGGAAGAUGUAUUCUUCUCAUAAGAUAUAGUCGGACCUCUCCUUAAUGGGAGCUAGCGGAUGAAGUGAUGCAACACUGGAGCCGCUGGGAACUAAUUUGUAUGCGAAAGUAUAUUGAUUAGUUUUGGAGUACUCGUGGUCG
The essentials:
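Six replicate transformations of E. coli BL21(DE3) with a pET-22b(+) library were grown overnight at 37°C or 30°C. The library randomised all eight P1ex-region intron nucleotides, the intron lying in the knt kanamycin-resistance gene, and plates were LB agar with or without 25 μg/mL kanamycin plus 100 μg/mL carbenicillin, 50 μM IPTG and 0.2% rhamnose. Pooled colonies were amplicon-sequenced on an Illumina HiSeq 2500, and fitness is the DiMSum error-weighted combination of wild-type-normalised replicate fold changes, kanamycin versus none.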

Data on 38 sequences can be found in the supplement of paper PMC7877785.

± gives the uncertainty stated by the source.

For UUAUAGCAAUAUUACGCGCU, the “self-splicing fitness (ln)” value by setting is: (30 °C) -2.25 ± 0.14; (37 °C) -1.55 ± 0.13.

In the case of CUGAAGCAAUAUUACGAGUC, the “self-splicing fitness (ln)” value was -3.88 ± 0.19 (30 °C) and -2.16 ± 0.21 (37 °C).

Take AAUGAGCAAUAUUACGUAAA: the “self-splicing fitness (ln)” value is, setting by setting: (30 °C) -3.26 ± 0.18; (37 °C) -1.1 ± 0.18. For GUGUAGCAAUAUUACGGGAU, the “self-splicing fitness (ln)” value was -2.93 ± 0.17 (30 °C) and -2.18 ± 0.2 (37 °C).

For GCGGAGCAAUAUUACGUACG, the “self-splicing fitness (ln)” value by setting is: (30 °C) -2.97 ± 0.28; (37 °C) -2.71 ± 0.44. On to GCCAAGCAAUAUUACGUCAC, for which the “self-splicing fitness (ln)” value (30 °C) was -3.8 ± 0.19 and the “self-splicing fitness (ln)” value (37 °C) was -1.8 ± 0.16.

Take AAGGAGCAAUAUUACGUUGC: the “self-splicing fitness (ln)” value is -4.58 ± 0.42 (30 °C) and -1.71 ± 0.23 (37 °C). For CUGGAGCAAUAUUACGACAA, in that order: -2.11 ± 0.2 and -1.7 ± 0.2.

Take AUUCAGCAAUAUUACGGAGA: the “self-splicing fitness (ln)” value is -1.48 ± 0.12 (30 °C) and -0.618 ± 0.11 (37 °C).

As to UCCGAGCAAUAUUACGGUUG, the “self-splicing fitness (ln)” value is -3.29 ± 0.26 (30 °C) and -3.07 ± 0.3 (37 °C). For CAGAAGCAAUAUUACGCGAU, in that order: -4.46 ± 0.32 and -2.59 ± 0.21. As to AGUCAGCAAUAUUACGUUUG, the “self-splicing fitness (ln)” value reads like this: (30 °C) -4.04 ± 0.21; (37 °C) -2.53 ± 0.19. On to UCGGAGCAAUAUUACGAGUG, for which the “self-splicing fitness (ln)” value was -2.47 ± 0.18 (30 °C) and -2.48 ± 0.19 (37 °C). For UAAGAGCAAUAUUACGUGUC, in that order: -3.09 ± 0.21 and -0.977 ± 0.17.

UCCCAGCAAUAUUACGAUUA: the “self-splicing fitness (ln)” value is -1.71 ± 0.12 (30 °C) and -1.36 ± 0.14 (37 °C). In the same order, the values of GCUCAGCAAUAUUACGAGAA are -0.468 ± 0.12 and 0.0758 ± 0.099. In the same order, the values of GAUUAGCAAUAUUACGAACA are -0.848 ± 0.21 and 0.129 ± 0.17. On to GGCUAGCAAUAUUACGGUUG, for which the “self-splicing fitness (ln)” value runs as follows: (30 °C) -0.166 ± 0.076; (37 °C) -0.197 ± 0.098. With GCGAAGCAAUAUUACGGCUA, the “self-splicing fitness (ln)” value by setting is: (30 °C) 0.15 ± 0.15; (37 °C) -0.618 ± 0.12. For the sequence AACCAGCAAUAUUACGCGCU, the “self-splicing fitness (ln)” value was -2.01 ± 0.13 (30 °C) and -0.894 ± 0.13 (37 °C). For UAGCAGCAAUAUUACGAGCU, in that order: -1.5 ± 0.13 and -0.893 ± 0.14. As to CUAAAGCAAUAUUACGGUCC, the “self-splicing fitness (ln)” value by setting is: (30 °C) -4.33 ± 0.47; (37 °C) -2.2 ± 0.35. For UGGUAGCAAUAUUACGUUCC, in that order: -2.33 ± 0.23 and -1.19 ± 0.36. As for AGGCAGCAAUAUUACGCCGG, the “self-splicing fitness (ln)” value is, setting by setting: (30 °C) -1.09 ± 0.15; (37 °C) -1.66 ± 0.17. In the case of GGACAGCAAUAUUACGGGCA, the “self-splicing fitness (ln)” value reads like this: (30 °C) -0.731 ± 0.18; (37 °C) -0.477 ± 0.17.

Take CCCUAGCAAUAUUACGGAGG: the “self-splicing fitness (ln)” value runs as follows: (30 °C) -2.87 ± 0.15; (37 °C) -2.77 ± 0.26.

Regarding UCACAGCAAUAUUACGUGAU, the “self-splicing fitness (ln)” value runs as follows: (30 °C) -3.64 ± 0.12; (37 °C) -2.76 ± 0.15. For CGUUAGCAAUAUUACGCACU, in that order: -2.03 ± 0.12 and -0.906 ± 0.11. For GUACAGCAAUAUUACGUCUC, the “self-splicing fitness (ln)” value is, setting by setting: (30 °C) -0.298 ± 0.11; (37 °C) -0.182 ± 0.12. Turning to AUGGAGCAAUAUUACGCGAG, the “self-splicing fitness (ln)” value (30 °C) was -2.22 ± 0.3. Turning to GGACAGCAAUAUUACGCUAC, the “self-splicing fitness (ln)” value was -4.74 ± 0.27 (30 °C) and -2.33 ± 0.24 (37 °C). For CAGAAGCAAUAUUACGGUGU, in that order: -3.05 ± 0.12 and -2.22 ± 0.14.

UACCAGCAAUAUUACGGGGA: the “self-splicing fitness (ln)” value reads like this: (30 °C) -1.24 ± 0.083; (37 °C) -0.746 ± 0.083.

In the case of CGCGAGCAAUAUUACGUCGC, the “self-splicing fitness (ln)” value was -2.79 ± 0.24 (30 °C) and -3.48 ± 0.37 (37 °C). In the same order, the values of ACAGAGCAAUAUUACGCCUA are -1.68 ± 0.23 and -1.93 ± 0.22. With AGUCAGCAAUAUUACGAAAA, the “self-splicing fitness (ln)” value was -1.63 ± 0.17 (30 °C) and -1.3 ± 0.2 (37 °C). In the same order, the values of AUAUAGCAAUAUUACGGUUG are -3.18 ± 0.2 and -2.24 ± 0.26. ACUUAGCAAUAUUACGAUCA: the “self-splicing fitness (ln)” value runs as follows: (30 °C) -1.45 ± 0.14; (37 °C) -0.47 ± 0.13.
